Results: US20060121042A1

Molecular target: hEphA2 (human) (UniProt P29317)
Assay: ELISA

hEphA2 (human), sequence (P29317 25-534 limits assumed): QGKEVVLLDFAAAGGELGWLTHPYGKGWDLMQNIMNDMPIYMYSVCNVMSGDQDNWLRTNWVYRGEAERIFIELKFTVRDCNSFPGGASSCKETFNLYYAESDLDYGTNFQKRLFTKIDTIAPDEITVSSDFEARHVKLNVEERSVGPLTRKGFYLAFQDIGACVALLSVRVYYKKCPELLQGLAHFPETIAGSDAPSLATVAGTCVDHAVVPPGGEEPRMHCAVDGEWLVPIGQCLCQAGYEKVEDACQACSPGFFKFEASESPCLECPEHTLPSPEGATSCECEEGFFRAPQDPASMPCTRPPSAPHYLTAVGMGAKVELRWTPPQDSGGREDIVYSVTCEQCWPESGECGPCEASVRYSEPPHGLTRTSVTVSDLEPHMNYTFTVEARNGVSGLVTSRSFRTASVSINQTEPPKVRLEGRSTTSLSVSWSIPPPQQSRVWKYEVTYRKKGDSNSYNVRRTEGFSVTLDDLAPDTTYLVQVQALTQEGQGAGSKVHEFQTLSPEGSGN

ELISA O.D. value: 0.453
B1: 3F2 (antibody, from another filing, V domains shown)
VH: EVQLVESGGGVVRPGGSLRLSCAASGFTVSDYSMNWVRQAPGKGLEWIGFIRNKANAYTTEYSASVKGRFTISRDDSKNTLYLQMNSLKTEDTAVYYCTTYPRYHAMDSWGQGTMVTVSS
VL: AIQLTQSPSSLSASVGDRVTITCRASQSISNNLHWYLQKPGQSPQLLIYYGFQSISGVPSRFSGSGSGTDFTLTISSLQPEDFATYYCQQANSWPLTFGGGTKLEIK
